Experimental findings from paper PMC3646814, “Tetramerization Reinforces the Dimer Interface of MnSOD” (PLoS ONE, 2013) are described below.

Positions count from the first letter of the chain named. In names and notes the source's numbering stands.

Series [1] addresses K184R, L185P CaMnSODc (Candida albicans).
For series [2] the target is unchanged. The source holds these as a separate data set.
The target is the same in series [3]. Briefly: SEC; HPLC-SEC (TSK gel G2000SW), as-isolated proteins, 10 µM to 200 nM with respect to monomer, 10 mM potassium phosphate pH 6.7; Kd of the step dimer to monomers, from area integrals of the elution peaks. A general note: SEC sorts molecules by how far they enter the pores of the column.
For series [4] the target is unchanged. The series is described as follows: crystal structure; hanging-drop vapor diffusion at 4°C, protein 7 mg/mL; methylated K182R, A183P ScMnSOD in 0.1 M tri-ammonium citrate pH 7, 20% PEG 3,350; unmodified K184R, L185P CaMnSODc in 2 M ammonium sulfate.
Series [5] shares this target. This is another data set of the same source.
Series [6] has as its target wild-type manganese superoxide dismutase from Candida albicans cytosol (Candida albicans). Briefly: SEC; HPLC-SEC (TSK gel G2000SW), as-isolated proteins, 10 µM to 200 nM with respect to monomer, 10 mM potassium phosphate pH 6.7; Kd of the step dimer to monomers, from area integrals of the elution peaks.
Series [7] concerns the molecule itself. Described as above.
Series [8] deals with the molecule itself. Briefly: crystal structure; hanging-drop vapor diffusion at 4°C, protein 7 mg/mL; methylated K182R, A183P ScMnSOD in 0.1 M tri-ammonium citrate pH 7, 20% PEG 3,350; unmodified K184R, L185P CaMnSODc in 2 M ammonium sulfate.

The Kd is a measure of binding affinity in units of concentration. Read a high Kd as a looser complex. Usually stoichiometry N stands for the number of molecules, sites or subunits per partner or assembly.

Take K184R, L185P CaMnSODc (enzyme): in series [1], the pK (the pH at which the SOD activity drops by 50%), pulse radiolysis amounted to 8 pH. The rate constant of O2^- dismutation by pulse radiolysis at 1 µM to 2.2 µM enzyme in series [2] worked out at 9.9e+08 M⁻¹ s⁻¹. For the same molecule, in series [3], the Kd came out at 2000 nM. Further, the stoichiometry N in series [3] was found to be 2; in series [4], 4. In series [5], this molecule gave an SOD activity (pulse radiolysis) after heating at 41°C (% activity lost) of 70.
In the case of “wild-type manganese superoxide dismutase from Candida albicans cytosol (enzyme)”, the stoichiometry N in series [6] came to 2.

B1: wild-type manganese superoxide dismutase from Saccharomyces cerevisiae mitochondria (enzyme, S. cerevisiae, UniProt P00447 27-233, looked up)
chain: KVTLPDLKWDFGALEPYISGQINELHYTKHHQTYVNGFNTAVDQFQELSDLLAKEPSPANARKMIAIQQNIKFHGGGFTNHCLFWENLAPESQGGGEPPTGALAKAIDEQFGSLDELIKLTNTKLAGVQGSGWAFIVKNLSNGGKLDVVQTYNQDTVTGPLVPLVAIDAWEHAYYLQYQNKKADYFKAIWNVVNWKEASRRFDAGKI
notes: Manganese superoxide dismutase of S. cerevisiae mitochondria (ScMnSOD), expressed from a 2-kb genomic BamHI fragment containing the gene; As isolated, 0.70 Mn per monomer; also called ScMnSOD; WT ScMnSOD; source: S. cerevisiae sod2Δ strain (EG110), overexpressed from YEp352-ScMnSOD, purified
Regarding B1, the “stoichiometry N” value in series [7] was determined as 4.

B2: K182R, A183P ScMnSOD (enzyme, S. cerevisiae, UniProt P00447 27-233, looked up)
chain: B1 chain with K182R, A183P
notes: Manganese superoxide dismutase of S. cerevisiae mitochondria (ScMnSOD) with K182R and A183P; Unmethylated form used for HPLC-SEC; as isolated, 0.71 Mn per monomer; also called RP-mutant ScMnSOD; as-isolated K182R, A183P ScMnSOD; source: S. cerevisiae sod2Δ strain (EG110), overexpressed from YEp352-ScMnSOD (mutant), purified
With B2, the “stoichiometry N” value in series [7] amounted to 4.

B3: methylated K182R, A183P ScMnSOD (enzyme, S. cerevisiae, UniProt P00447 27-233, looked up)
chain: B1 chain with K182R, A183P
modifications: all free amino groups of the lysine residues and the N-terminus methylated (reductive methylation, confirmed by mass spectrometry)
notes: Manganese superoxide dismutase of S. cerevisiae mitochondria (ScMnSOD) with K182R and A183P; The form that was crystallised; 0.71 Mn per monomer; theoretical mass of the methylated protein 23,589 Da; also called methylated RP-mutant ScMnSOD; source: S. cerevisiae sod2Δ strain (EG110), overexpressed, purified, then reductive methylation
Consider B3, for which the “stoichiometry N” value in series [8] worked out at 4.
